# Reference: IntAct's records for PubMed 9355745
# B1: Tyrosine-protein phosphatase non-receptor type 1 (Homo sapiens), P18031 (parent)
# chain: MEMEKEFEQIDKSGSWAAIYQDIRHEASDFPCRVAKLPKNKNRNRYRDVSPFDHSRIKLHQEDNDYINASLIKMEEAQRSYILTQGPLPNTCGHFWEMVWEQKSRGVVMLNRVMEKGSLKCAQYWPQKEEKEMIFEDTNLKLTLISEDIKSYYTVRQLELENLTTQETREILHFHYTTWPDFGVPESPASFLNFLFKVRESGSLSPEHGPVVVHCSAGIGRSGTFCLADTCLLLMDKRKDPSSVDIKKVLLEMRKFRMGLIQTADQLRFSYLAVIEGAKFIMGDSSVQDQWKELSHEDLEPPPEHIPPPPRPPKRILEPHNGKCREFFPNHQWVKEETQEDKDCPIKEEKGSPLNAAPYGIESMSQDTEVRSRVVGGSLRGAQAASPAKGEPSLPEKDEDHALSYWKPFLVNMCVATVLTAGAYLCYRFLFNSNT
# Variants of: B1
# Details: with pgfrb_human PDGFRB
row,Variant,effect of a mutation on the interaction
1,C215S,increasing interaction
